# Results reported in patent US20240294622A1 (SUZHOU TRANSCENTA THERAPEUTICS, published 2024).
# T1: HGREM1-His (ACRO) (human, UniProt O60565 25-184)
# T1 construct: Lys25-Asp184 of NP_037504 with C-terminal polyhistidine tag (ACRO GR1-H52H3); they are put here; also called hGREM1 (ACRO); human gremlin (ACRO)
# T1 sequence: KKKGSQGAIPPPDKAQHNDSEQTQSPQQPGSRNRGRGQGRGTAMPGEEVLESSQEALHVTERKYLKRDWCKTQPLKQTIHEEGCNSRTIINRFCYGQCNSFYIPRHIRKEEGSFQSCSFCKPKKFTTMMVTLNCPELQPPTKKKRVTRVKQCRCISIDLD
# T2: Mouse Gremlin-His (R&D) (mouse, UniProt O70326 25-184)
# T2 construct: Lys25-Asp184 with 10xHis, R&D 956-GR; also called mouse gremlin (R&D); mGREM1
# T2 sequence: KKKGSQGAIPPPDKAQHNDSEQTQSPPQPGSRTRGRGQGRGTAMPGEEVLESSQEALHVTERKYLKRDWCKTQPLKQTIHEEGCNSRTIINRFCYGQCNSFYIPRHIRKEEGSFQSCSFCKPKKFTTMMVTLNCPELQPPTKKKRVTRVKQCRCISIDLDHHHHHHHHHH
# T3: DAN-his (Sinobiological) (human, UniProt P41271 17-181, limits assumed)
# T3 construct: also called DAN (Sinobiological); human DAN-his
# T3 sequence (looked up): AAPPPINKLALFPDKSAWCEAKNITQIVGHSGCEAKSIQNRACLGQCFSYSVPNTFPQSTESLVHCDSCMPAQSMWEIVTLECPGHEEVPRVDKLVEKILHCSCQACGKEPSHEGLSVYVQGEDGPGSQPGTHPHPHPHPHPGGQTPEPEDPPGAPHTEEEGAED
# How the values were obtained:
# HGREM1-His (ACRO) [1] = molecular target: T1, HGREM1-His (ACRO); test: ELISA, coated hGREM1 (ACRO)
# Method: (§1) Clear polystyrene plates (BEAVER) were coated with 100 μl/well of a […] hGREM1 (ACRO) and mouse gremlin (R&D) in high pH coating buffer overnight at 4° C. Then the plates were washed once on an automatic plate washer using PBS+0.1% Tween 20 (Sigma). 100 μl of block solution consisting of PBS+1% BSA+1% normal goat serum+0.5% Tween 20 (Sigma) was added to each well and incubated at room temperature for 2 hours. Then 100 μl of antibodies in antibody dilution buffer containing PBS+1% BSA+1% normal goat serum+0.01% Tween 20 starting from 2 μg/ml and then serial dilutions were added to each well of the plate and incubated for 1 hours at room temperature. Afterward the plates were washed three times with 200 μl of PBS+0.1% Tween20 followed by adding 100 μl/well 1:10000 Goat anti mouse IgG-HRP (abcam), and incubate for 1 hour at room temperature. They were then washed 3× with PBS+0.1% Tween20. Finally, 100 µl/well of TMB (Pierce) was added to each well and after several minutes add 50 μl of stop solution to each well. The plates were read on a Multiscan FC microplate reader (Thermo Scientific) at […].
# Mouse Gremlin-His (R&D) = molecular target: T2, Mouse Gremlin-His (R&D); test: ELISA, coated mouse gremlin (R&D)
# Method: as §1
# HGREM1-His (ACRO) [2] = molecular target: T1, HGREM1-His (ACRO); test: ELISA, binding to hGremlin-his
# HGREM1-His (ACRO) [3] = molecular target: T1, HGREM1-His (ACRO); test: ELISA on coated human Gremlin-his; unit from the axis Ab(nM); panel called FIG. 19C in the text
# Method: (§2) Clear polystyrene plates (BEAVER) were coated with 100 μl/well of a 0.5 μg/ml human gremlin (ACRO) and DAN (Sinobiological) in high pH coating buffer overnight at 4° C. Then the plates were washed once on an automatic plate washer using PBS+0.1% Tween 20 (Sigma). 100 μl of block solution consisting of PBS+1% BSA+1% normal goat serum+0.5% Tween 20 (Sigma) was added to each well and incubated at room temperature for 2 hours. Then 100 ul of antibodies (hybridoma or chimeric antibody 36F5, chimeric antibody 67G11, chimeric antibody 42B9) in antibody dilution buffer containing PBS+1% BSA+1% normal goat serum+0.01% Tween 20 starting from 2 μg/ml (13.33 nM) and then 4 fold serial dilution were added to each well of the plate and incubated for 1 hours at room temperature. Afterward the plates were washed three times with 200 ul of PBS+0.1% Tween20 followed by adding 100 μl/well 1:10000 Goat anti mouse IgG-HRP or mouse anti-human IgG-HRP (abcam), and incubate for 1 hour at room temperature. They were then washed 3× with PBS+0.1% Tween20. Finally, 100 μl/well of TMB (InnoReagents) was added to each well and after 2 minutes add 50 ul of stop solution to each well. The plates were read on a Multiscan FC microplate reader (Thermo Scientific) at 450 nm.
# DAN-his (Sinobiological) = molecular target: T3, DAN-his (Sinobiological); test: ELISA on coated DAN-his; unit from the axis Ab(nM); panel called FIG. 19C in the text
# Method: as §2
EC50 (HGREM1-His (ACRO) [2]) [µg/mL],Binder,further results
1.04,"Hu22F1_HbLa (antibody, V domains shown) VH: QVQLVQSGAEVKKPGASVKVSCKASGYSFTDYYMNWVRQAPGQGLEWMGDINPKDGDSGYSHKFKGRVTMTVDKSTSTVYMELSSLRSEDTAVYYCASGFTTVVARGDYWGQGTTVTVSS VL: DVVMTQSPLSLPVTLGQPASISCKSSQSLLDSDGKTYLNWLQQRPGQSPRRLIYLVSKLDSGVPDRFSGSGSGTDFTLKISRVEAEDVGVYYCWQGTHFPYTFGGGTKVEIK",–
0.094,"Hu22F1_HbLb (antibody, V domains shown) VH: QVQLVQSGAEVKKPGASVKVSCKASGYSFTDYYMNWVRQAPGQGLEWMGDINPKDGDSGYSHKFKGRVTMTVDKSTSTVYMELSSLRSEDTAVYYCASGFTTVVARGDYWGQGTTVTVSS VL: DVVMTQSPLSLPVTLGQPASISCKSSQSLLDSDGKTYLNWLQQRPGQSPRRLIYLVSKLDSGFPDRFSGSGSGTDFTLKISRVEAEDVGVYYCWQGTHFPYTFGGGTKVEIK",–
0.0167,"Hu22F1_HdLa (antibody, V domains shown) VH: QAQLVQSGAEVKKPGASVKVSCKASGYSFTDYYMNWLRQAPGQGLEWIGDINPKDGDSGYSHKFKGRATLTVDKSTSTVYMELRSLRSEDTAVYYCASGFTTVVARGDYWGQGTTVTVSS VL: DVVMTQSPLSLPVTLGQPASISCKSSQSLLDSDGKTYLNWLQQRPGQSPRRLIYLVSKLDSGVPDRFSGSGSGTDFTLKISRVEAEDVGVYYCWQGTHFPYTFGGGTKVEIK",–
0.0103,"Hu22F1_HdLb (antibody, V domains shown) VH: QAQLVQSGAEVKKPGASVKVSCKASGYSFTDYYMNWLRQAPGQGLEWIGDINPKDGDSGYSHKFKGRATLTVDKSTSTVYMELRSLRSEDTAVYYCASGFTTVVARGDYWGQGTTVTVSS VL: DVVMTQSPLSLPVTLGQPASISCKSSQSLLDSDGKTYLNWLQQRPGQSPRRLIYLVSKLDSGFPDRFSGSGSGTDFTLKISRVEAEDVGVYYCWQGTHFPYTFGGGTKVEIK",–
0.0435,"Hu22F1_HcLb (antibody, V domains shown) VH: QAQLVQSGAEVKKPGASVKVSCKASGYSFTDYYMNWVRQAPGQGLEWMGDINPKDGDSGYSHKFKGRVTLTVDKSTSTVYMELRSLRSEDTAVYYCASGFTTVVARGDYWGQGTTVTVSS VL: DVVMTQSPLSLPVTLGQPASISCKSSQSLLDSDGKTYLNWLQQRPGQSPRRLIYLVSKLDSGFPDRFSGSGSGTDFTLKISRVEAEDVGVYYCWQGTHFPYTFGGGTKVEIK",–

# Continued, binder first:
Binder,EC50 (HGREM1-His (ACRO) [2]) [µg/mL],further results
"56C11 (antibody, V domains shown, mouse hybridoma antibody; also called hybridoma 56C11) VH: EVQLQQSGPELVKPGASVKISCKASGYTFTDFYMNWVKQSHGKSLEWIGDINPNNGGTSYNQKFKGKATLTVDKSSSTAYMELRSLTSEDSAVYYCARDPIYYDYDEVAYWGQGTLVTVSA VL: DVVMTQTPLSLPVSLGDQASISCRSSQSLVHSNGNTYLHWYLQKPGQSPKLLIYKVSNRFSGVPDRFSGSGSGTDFTLKISRVEAEDLGVYFCSQSTHVPLTFGAGTKLELK",–,EC50 (HGREM1-His (ACRO) [1]): 0.0134 µg/mL; EC50 (Mouse Gremlin-His (R&D)): 0.0172 µg/mL
"Hu14E3_HbLa (antibody, IgG1, V domains shown, humanized) VH: QIQLVQSGSELKKPGASVKVSCKASGYTFTTYGMAWMRQAPGQGLEWMGWINTLSGEPTYADDFKGRFAFSLDTSVSTAYLQISSLKAEDTAVYYCAREPMDYWGQGTMVTVSS VL: DVVMTQSPLSLPVTLGQPASISCKSSQSLLDSDGKTYLSWLQQRPGQSPRRLIYLVSKLDSGVPDRFSGSGSGTDFTLKISRVEAEDVGVYYCWQGAHFPLTFGQGTKLEIK",0.006,–
"Hu22F1_HcLa (antibody, V domains shown) VH: QAQLVQSGAEVKKPGASVKVSCKASGYSFTDYYMNWVRQAPGQGLEWMGDINPKDGDSGYSHKFKGRVTLTVDKSTSTVYMELRSLRSEDTAVYYCASGFTTVVARGDYWGQGTTVTVSS VL: DVVMTQSPLSLPVTLGQPASISCKSSQSLLDSDGKTYLNWLQQRPGQSPRRLIYLVSKLDSGVPDRFSGSGSGTDFTLKISRVEAEDVGVYYCWQGTHFPYTFGGGTKVEIK",0.312,–
"Hu22F1_HaLa (antibody, V domains shown, humanized 22F1 variant) VH: QVQLVQSGAEVKKPGASVKVSCKASGYSFTDYYMNWVRQAPGQGLEWMGDINPKDGDSGYSHKFKGRVTMTRDTSTSTVYMELSSLRSEDTAVYYCASGFTTVVARGDYWGQGTTVTVSS VL: DVVMTQSPLSLPVTLGQPASISCKSSQSLLDSDGKTYLNWLQQRPGQSPRRLIYLVSKLDSGVPDRFSGSGSGTDFTLKISRVEAEDVGVYYCWQGTHFPYTFGGGTKVEIK",1.17,–
"Hu14E3_HcLa (antibody, IgG1, V domains shown, humanized) VH: QIQLVQSGSELKKPGASVKVSCKASGSTFTTYGMAWMKQAPGQGLTWMGWINTLSGEPTYADDFKGRFAFSLDTSVSTAYLQISSLKAEDTAVYYCAREPMDYWGQGTMVTVSS VL: DVVMTQSPLSLPVTLGQPASISCKSSQSLLDSDGKTYLSWLQQRPGQSPRRLIYLVSKLDSGVPDRFSGSGSGTDFTLKISRVEAEDVGVYYCWQGAHFPLTFGQGTKLEIK",0.0066,–
"Hu14E3_HcLb (antibody, IgG1, V domains shown, humanized) VH: QIQLVQSGSELKKPGASVKVSCKASGSTFTTYGMAWMKQAPGQGLTWMGWINTLSGEPTYADDFKGRFAFSLDTSVSTAYLQISSLKAEDTAVYYCAREPMDYWGQGTMVTVSS VL: DVVMTQSPLSLPVTLGQPASISCKSSQSLLDSDGKTYLSWLQQRPGQSPRRLISLVSKLDSGVPDRFSGSGSGTDFTLKISRVEAEDVGVYYCWQGAHFPLTFGQGTKLEIK",0.0061,–
"Hu22F1_HaLb (antibody, V domains shown) VH: QVQLVQSGAEVKKPGASVKVSCKASGYSFTDYYMNWVRQAPGQGLEWMGDINPKDGDSGYSHKFKGRVTMTRDTSTSTVYMELSSLRSEDTAVYYCASGFTTVVARGDYWGQGTTVTVSS VL: DVVMTQSPLSLPVTLGQPASISCKSSQSLLDSDGKTYLNWLQQRPGQSPRRLIYLVSKLDSGFPDRFSGSGSGTDFTLKISRVEAEDVGVYYCWQGTHFPYTFGGGTKVEIK",0.117,–
"Hu14E3_HaLb (antibody, IgG1, V domains shown, humanized) VH: QVQLVQSGSELKKPGASVKVSCKASGYTFTTYGMAWMRQAPGQGLEWMGWINTLSGEPTYADDFKGRFVFSLDTSVSTAYLQISSLKAEDTAVYYCAREPMDYWGQGTMVTVSS VL: DVVMTQSPLSLPVTLGQPASISCKSSQSLLDSDGKTYLSWLQQRPGQSPRRLISLVSKLDSGVPDRFSGSGSGTDFTLKISRVEAEDVGVYYCWQGAHFPLTFGQGTKLEIK",0.0056,–
"Hu14E3_HbLb (antibody, IgG1, V domains shown, humanized) VH: QIQLVQSGSELKKPGASVKVSCKASGYTFTTYGMAWMRQAPGQGLEWMGWINTLSGEPTYADDFKGRFAFSLDTSVSTAYLQISSLKAEDTAVYYCAREPMDYWGQGTMVTVSS VL: DVVMTQSPLSLPVTLGQPASISCKSSQSLLDSDGKTYLSWLQQRPGQSPRRLISLVSKLDSGVPDRFSGSGSGTDFTLKISRVEAEDVGVYYCWQGAHFPLTFGQGTKLEIK",0.0062,–
"chimeric antibody 42B9 (antibody, human IgG1, V domains shown) VH: QVQLQQSGAELARPGASVKLSCKASGYTFTSYGIGWVKQRTGQGLEWIGEIYPRSGNTYNNEKFKGKATLTADKSSRTVYMELRSLISEDSAVYFCAREGYSNNYYAMDYWGQGTSVTVFS VL: DVLMTQTPLSLPVSLGDQASISCISSQSLVHSNGNTYLEWYLQKPGLSPKLLIYKVSNRFSGVPDRLSGSGSGTDFTLRISRVEAEDLGVYYCFQGSHVPFTFGSGTKLEIK",–,EC50 (HGREM1-His (ACRO) [3]): 0.0209 nM; EC50 (DAN-his (Sinobiological)): 0.0203 nM
